Measurements reported in PMC5758886.

Assays:
[1] = target: AcrIIA1 (native wild type) (Listeria monocytogenes prophages); test: SEC
[2] = target: AcrIIA1 (native wild type) (Listeria monocytogenes prophages); test: crystal structure
[3] = target: AcrIIA1 selenomethionyl L52M mutant (Listeria monocytogenes prophages); test: crystal structure

AcrIIA1 (native wild type) (natural protein)
stoichiometry N [1]: 2 | stoichiometry N [2]: 2

AcrIIA1 selenomethionyl L52M mutant (natural protein)
stoichiometry N [3]: 2
